One data set deals with T1, Pro-Gly.
T1 chain: PG

Data set [1] deals with cys-gly-conjugate (compound of formula FIII). Description: cell-based or functional assay.
The target in the next data set is T2, Z-Gly-Gly.
T2 chain: GG

The target in a further data set is T3, Ala-Ala.
T3 chain: AA

Another data set concerns the target T4, Gly-Gly.
T4 chain: GG

Data set [2] concerns the target T5, cys-gly-conjugate (compound of formula FIII).
T5 chain: CG

In data set [3] the target is T6, H-Cys(Bzl)-Gly-OH (S-benzyl-Cys-Gly).
T6 chain: CG

The target in a further data set is T7, Ala-Gly.
T7 chain: AG

This note sets out measurements from patent US20160046921A1.

B1: Ax20 peptidase (peptidase from Corynebacterium sp. Ax20, SEQ ID NO:2), recombinant, without histidine tag (enzyme)
chain: MSNDKAATSTNFNLTPNRERIFQELSELISHYSPHSMPEHADTHEEAAKWVTAKLEELGLDVTRHPTVDDADTIIGVKEPVGDAPTILLYSHYDVVPAQNPAVWTNDPLELDERDGRWYGRGAADCKGNVIMHLEALRMVQENGGTDLGLKVVMEGSEELGGEDGLGKLIDANPELFTADVIFIGDGGNVAVGIPTLTTHLRGGAQLRFKVDTLEGPVHSGGWGGAAPDAAHALIRIIDSFFDEHGRTTIEGVDTTAKWEGDPYDRETFRKDARVLDGVQLLGTVDDEPADMVWARPAITVIGFTSVPVEDATNIVNPTAEAQFNLRVPAPQSAAEVAKKVEEQIRARAPWGAKVEVSITGVNEPFSTDPNGPAVQHFGKCLQDAYGAEHLTVVGTGGSIPLTVTLQKHFPDAEFALYGVADPAANIHGVDESVDPTEIEHVAIAEAEFLLTYGK
Take B1: the “release of a free NH2 group (fluorescamine derivatisation)” value with Pro-Gly is “Cleavage of the peptide substrate Pro-Gly by addition of the recombinant Ax20 peptidase (SEQ ID NO: 2) released a unique free NH2 group”. Further, in data set [1], the release of 3-sulfanyl-3-methyl-hexanol from the Cys-Gly-conjugate [mM]; 10 fold dilution of clear cell lysate, + β-lyase is 1 mM; the release of 3-sulfanyl-3-methyl-hexanol from the Cys-Gly-conjugate [mM]; 100 fold dilution of clear cell lysate, + β-lyase stood at 0.92 mM; the release of 3-sulfanyl-3-methyl-hexanol from the Cys-Gly-conjugate [mM]; 1000 fold dilution of clear cell lysate, + β-lyase was 0.46 mM.

B2: Ax20 peptidase with histidine tag (SEQ ID NO:2 ligated to a 6x Histidine-Tag), recombinant (enzyme, not shown: small tags and cut ends)
chain: MSNDKAATSTNFNLTPNRERIFQELSELISHYSPHSMPEHADTHEEAAKWVTAKLEELGLDVTRHPTVDDADTIIGVKEPVGDAPTILLYSHYDVVPAQNPAVWTNDPLELDERDGRWYGRGAADCKGNVIMHLEALRMVQENGGTDLGLKVVMEGSEELGGEDGLGKLIDANPELFTADVIFIGDGGNVAVGIPTLTTHLRGGAQLRFKVDTLEGPVHSGGWGGAAPDAAHALIRIIDSFFDEHGRTTIEGVDTTAKWEGDPYDRETFRKDARVLDGVQLLGTVDDEPADMVWARPAITVIGFTSVPVEDATNIVNPTAEAQFNLRVPAPQSAAEVAKKVEEQIRARAPWGAKVEVSITGVNEPFSTDPNGPAVQHFGKCLQDAYGAEHLTVVGTGGSIPLTVTLQKHFPDAEFALYGVADPAANIHGVDESVDPTEIEHVAIAEAEFLLTYGK
On to B2, for which the “Cleavage (thin layer chromatography)” value is “+” in the data set with Pro-Gly; “-” in the data set with Z-Gly-Gly; “++” with Ala-Ala; “+” in the data set with Gly-Gly; “+++” in data set [2]; “+++” in data set [3]. Moreover, the “Cleavage (thin layer chromatography)” value with Ala-Gly is on record as “++”. Moreover, the release of 3-sulfanyl-3-methyl-hexanol from the Cys-Gly-conjugate [mM]; 10 fold dilution of clear cell lysate, + β-lyase in data set [1] was determined as 0.94 mM. Further, the release of 3-sulfanyl-3-methyl-hexanol from the Cys-Gly-conjugate [mM]; 100 fold dilution of clear cell lysate, + β-lyase in data set [1] was determined as 0.88 mM. Also, the release of 3-sulfanyl-3-methyl-hexanol from the Cys-Gly-conjugate [mM]; 1000 fold dilution of clear cell lysate, + β-lyase in data set [1] was 0.36 mM.

B3: β-lyase from Corynebacterium sp. Ax20 (cystathionine-β-lyase, metC gene product) (protein)
chain: MQFSNLDTLRTRGTRKWTQFDDDVIPMFVAESDFPTAPAIKEAIIDACEREMFGYTPAPHAHHLGEAVADFYDWRYGWRPDAAKIFPVADVVRGVLLAIQYFTDGDVIVPVPAYFPFLPIAEAAGRNRIDISSDKGLEGGLDMAEVEEAFKNGAGSIIVTNPFNPGGWMFTSEELDQICDIARRYKGRVLVDEIHAPLTYGKRHVCAAANNPDVCITVTATSKAWNVAGLKCAQMIFTNDEDVKTWNAINPVAKDGVGTLGIIAAEAAYESGREHLDWQVEQLKANRDWLVENLPSLIPGIRFEIPDATYLMFLDFKDTKLGVDKPAAYLLKHARVALSEGVDFGPGGEHRARMNFATSPEILKEATERIARAIEVV
Take B3: the release of 3-sulfanyl-3-methyl-hexanol from cys-gly-conjugate [mM] (gas chromatography) in data set [2] was less than 0.03 mM.
